Experimental data taken from patent publication US20060079445A1, “CaMKII/calcium channel binding-related compositions and methods” (priority 2004, published 2006).

Key:
[1] = target: T1, autophosphorylated α-CaMKII / α1C amino acids 1581-1690 (Rattus norvegicus, UniProt P11275); test: GST pull down of autophosphorylated α-CaMKII with α1C aa 1581-1690, peptide competition; format: binding; details: 40 μM peptide; 20 nM α-CaMKII
T1 construct: made in house; GST fusion proteins from bacterial lysates
Experimental: (B) Immunoblot with CBα2 after GST pull down of purified autophosphorylated α-CaMKII (20 nM), using α1C amino acids 1581-1690 fused to GST. Pull down assay performed in the presence of 40 μM of the indicated peptide or the peptide diluent DMSO. (C) Immunoblots with CBα2 or an anti-CaM antibody after a GST pull down assay, using α1C amino acids 1581-1690 (WT), a ^1644TVGKFY^1649→EEDAAA mutant (Mut6), or GST alone, of purified autophosphorylated CaMKII (left) or CaM (right). Top panels show a Ponceau stain of each fusion protein. […] Asterisk indicates p<0.001 for a one-way analysis of variance followed by a Dunnett's test to identify specific pair-wise differences between the means for Mut6 vs. wt and GST vs. wt, n=4-8. […] Top panels show a Ponceau stain of each fusion protein.
The binding reactions were accomplished in Tris binding buffer (50 mM Tris, 150 mM NaCl, 0.1% T-20 at pH 7.4 ml plus 0.1% BSA) containing 20 nM purified CaMKII. The total protein from the HEK293 cell lysates added to each binding reaction ranged from 9-22 μg, determined by normalizing for the amount of CaMKII activity (Singla et al., 2001). Pre-autophosphorylayion of CaMKII (purified and lysate) was accomplished at 4° C. for 5 min in Tris binding buffer plus 1 mM CaCl2, 5 μM CaM, 1 mM ATP, and 5 mM MgCl2 to restrict the sites of autophosphorylation to primarily Thr286 (Ikeda et al., 1991; Lai et al., 1987; Lou and Schulman, 1989). Final concentration of these components in the binding reaction (1:40) was 0.025 mM CaCl2, 0.125 μM CaM, 0.025 mM ATP, and 0.125 MM MgCl2. The binding reaction was rocked for 1 h at 4° C. and the beads extensively washed in Tris binding buffer (2-3× for 5 mins each). Immunoblots were performed multiple times with identical results and Ponceau staining was always performed to ensure equal loading and transfer. CaMKII binding was quantified using densiotometric measurement of band intensity using KODAK 1D Image Analysis Software (Eastman Kodak, Company). […]

[2] = target: T2, cloned L-type channels (subunit α1C77) (Homo sapiens, UniProt Q13936); test: Check for use-dependence of diltiazem block of cloned L-type channels; format: cell-based; details: 100 μM; same solutions and voltage protocol as granule cells
T2 construct: expressed in transfected cells; host or cells: HEK293 stably transfected with α2-δ and β1C (HEKα2β1), transiently transfected with α1C77 and GFP
T2 sequence (Q13936 1-2138 isoform Q13936-20): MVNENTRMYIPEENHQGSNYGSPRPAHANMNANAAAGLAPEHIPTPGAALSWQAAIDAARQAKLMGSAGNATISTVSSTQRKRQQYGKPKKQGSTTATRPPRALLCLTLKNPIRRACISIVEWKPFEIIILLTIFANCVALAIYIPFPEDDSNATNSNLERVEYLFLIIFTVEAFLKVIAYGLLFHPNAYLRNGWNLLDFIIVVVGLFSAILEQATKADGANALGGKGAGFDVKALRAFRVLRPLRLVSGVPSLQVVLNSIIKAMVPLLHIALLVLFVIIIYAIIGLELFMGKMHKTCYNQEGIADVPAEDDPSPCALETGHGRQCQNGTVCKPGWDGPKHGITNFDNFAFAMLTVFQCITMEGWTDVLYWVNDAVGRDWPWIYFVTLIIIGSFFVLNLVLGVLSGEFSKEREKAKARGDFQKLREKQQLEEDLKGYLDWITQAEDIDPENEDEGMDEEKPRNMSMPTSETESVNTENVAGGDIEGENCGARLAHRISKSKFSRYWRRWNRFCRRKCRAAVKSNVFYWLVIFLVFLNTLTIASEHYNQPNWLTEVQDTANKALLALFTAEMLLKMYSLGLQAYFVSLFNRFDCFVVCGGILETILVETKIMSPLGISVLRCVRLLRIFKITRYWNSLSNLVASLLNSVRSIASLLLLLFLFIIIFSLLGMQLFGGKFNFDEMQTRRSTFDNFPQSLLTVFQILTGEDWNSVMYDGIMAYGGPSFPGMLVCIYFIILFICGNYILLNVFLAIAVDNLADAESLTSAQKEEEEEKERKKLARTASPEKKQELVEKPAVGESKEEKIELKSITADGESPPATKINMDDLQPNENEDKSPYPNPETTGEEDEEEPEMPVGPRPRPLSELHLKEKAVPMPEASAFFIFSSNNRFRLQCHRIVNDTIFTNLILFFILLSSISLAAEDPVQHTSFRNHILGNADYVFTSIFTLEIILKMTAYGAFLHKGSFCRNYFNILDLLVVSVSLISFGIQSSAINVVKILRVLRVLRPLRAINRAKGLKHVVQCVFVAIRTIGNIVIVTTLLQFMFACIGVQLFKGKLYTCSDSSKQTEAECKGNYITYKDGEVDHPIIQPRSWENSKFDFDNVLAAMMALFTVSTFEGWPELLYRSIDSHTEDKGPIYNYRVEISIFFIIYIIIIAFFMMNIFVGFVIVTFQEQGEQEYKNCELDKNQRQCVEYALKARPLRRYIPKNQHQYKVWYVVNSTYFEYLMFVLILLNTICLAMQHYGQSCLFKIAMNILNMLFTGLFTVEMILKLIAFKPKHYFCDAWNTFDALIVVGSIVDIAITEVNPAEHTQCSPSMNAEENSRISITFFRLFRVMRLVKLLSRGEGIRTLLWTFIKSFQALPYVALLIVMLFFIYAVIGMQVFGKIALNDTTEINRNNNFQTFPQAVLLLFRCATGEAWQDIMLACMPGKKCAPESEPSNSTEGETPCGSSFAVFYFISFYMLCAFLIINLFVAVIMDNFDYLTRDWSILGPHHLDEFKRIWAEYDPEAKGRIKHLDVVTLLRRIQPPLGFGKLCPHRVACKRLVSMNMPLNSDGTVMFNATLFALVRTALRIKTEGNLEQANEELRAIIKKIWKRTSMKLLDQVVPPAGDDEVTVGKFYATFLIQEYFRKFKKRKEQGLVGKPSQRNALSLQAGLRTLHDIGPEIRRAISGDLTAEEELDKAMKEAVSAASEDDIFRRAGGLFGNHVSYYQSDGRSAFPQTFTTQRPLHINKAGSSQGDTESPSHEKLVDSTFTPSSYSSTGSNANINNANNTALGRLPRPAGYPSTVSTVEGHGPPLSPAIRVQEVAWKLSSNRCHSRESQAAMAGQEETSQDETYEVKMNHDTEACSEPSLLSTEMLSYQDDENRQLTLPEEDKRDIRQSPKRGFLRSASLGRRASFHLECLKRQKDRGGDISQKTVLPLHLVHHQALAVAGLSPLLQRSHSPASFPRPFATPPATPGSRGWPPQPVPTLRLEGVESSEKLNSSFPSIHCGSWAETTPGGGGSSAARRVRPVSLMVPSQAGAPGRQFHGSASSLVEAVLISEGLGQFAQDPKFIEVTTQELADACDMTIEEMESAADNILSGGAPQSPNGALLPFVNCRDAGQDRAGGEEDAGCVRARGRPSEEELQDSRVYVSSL
T2 sequence (Q02641 whole entry partner): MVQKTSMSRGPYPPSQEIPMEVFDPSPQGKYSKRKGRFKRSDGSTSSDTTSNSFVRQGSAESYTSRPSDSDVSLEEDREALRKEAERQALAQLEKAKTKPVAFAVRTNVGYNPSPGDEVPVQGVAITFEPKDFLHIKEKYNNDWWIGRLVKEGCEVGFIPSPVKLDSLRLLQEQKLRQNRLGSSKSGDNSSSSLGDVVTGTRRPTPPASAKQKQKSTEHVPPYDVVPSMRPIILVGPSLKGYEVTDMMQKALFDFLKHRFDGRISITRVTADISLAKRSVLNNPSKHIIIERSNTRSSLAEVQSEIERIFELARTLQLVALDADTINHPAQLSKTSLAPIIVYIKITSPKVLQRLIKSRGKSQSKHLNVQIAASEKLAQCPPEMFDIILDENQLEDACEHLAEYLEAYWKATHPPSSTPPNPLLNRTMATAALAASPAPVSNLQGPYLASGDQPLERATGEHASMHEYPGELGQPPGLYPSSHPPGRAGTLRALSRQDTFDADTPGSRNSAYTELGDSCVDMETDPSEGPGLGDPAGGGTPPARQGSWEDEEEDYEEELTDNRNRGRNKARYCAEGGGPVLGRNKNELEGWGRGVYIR
T2 sequence (P54289 25-946 partner limits assumed): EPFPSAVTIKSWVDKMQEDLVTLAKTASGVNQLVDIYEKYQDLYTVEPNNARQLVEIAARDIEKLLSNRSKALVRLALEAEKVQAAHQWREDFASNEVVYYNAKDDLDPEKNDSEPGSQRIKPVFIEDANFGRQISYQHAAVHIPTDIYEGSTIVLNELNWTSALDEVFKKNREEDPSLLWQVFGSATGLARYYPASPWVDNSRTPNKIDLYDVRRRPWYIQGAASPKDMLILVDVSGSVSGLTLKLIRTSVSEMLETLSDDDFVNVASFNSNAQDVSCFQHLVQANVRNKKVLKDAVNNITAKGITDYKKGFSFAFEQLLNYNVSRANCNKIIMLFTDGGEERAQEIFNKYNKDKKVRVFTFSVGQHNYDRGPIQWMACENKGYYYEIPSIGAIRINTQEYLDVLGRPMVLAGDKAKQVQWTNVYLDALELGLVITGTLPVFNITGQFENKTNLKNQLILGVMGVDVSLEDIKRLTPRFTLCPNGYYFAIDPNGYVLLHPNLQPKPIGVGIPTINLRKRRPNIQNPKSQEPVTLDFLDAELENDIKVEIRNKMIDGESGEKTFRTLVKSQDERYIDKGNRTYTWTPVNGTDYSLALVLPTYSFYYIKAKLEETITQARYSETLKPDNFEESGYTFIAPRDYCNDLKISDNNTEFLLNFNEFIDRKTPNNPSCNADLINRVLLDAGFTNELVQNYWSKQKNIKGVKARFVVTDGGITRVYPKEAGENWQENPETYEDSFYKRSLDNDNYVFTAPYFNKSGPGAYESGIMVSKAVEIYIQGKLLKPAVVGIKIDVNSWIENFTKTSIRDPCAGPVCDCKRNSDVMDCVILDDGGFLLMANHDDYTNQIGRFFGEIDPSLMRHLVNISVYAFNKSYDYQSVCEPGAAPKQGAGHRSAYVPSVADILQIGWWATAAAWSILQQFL
T2 sequence (P54289 947-1103 partner limits assumed): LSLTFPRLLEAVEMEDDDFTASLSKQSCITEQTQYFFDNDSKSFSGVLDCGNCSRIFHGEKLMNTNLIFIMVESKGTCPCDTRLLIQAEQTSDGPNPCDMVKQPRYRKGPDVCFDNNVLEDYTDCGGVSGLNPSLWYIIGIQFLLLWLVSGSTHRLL
Experimental: Dissociated cerebellar granule cells were prepared from 7-day old C57/BL6 mouse cerebella and grown in culture by a published protocol (Piedras-Renteria and Tsien, 1998; Randall and Tsien, 1995). The cerebellar granule cells were maintained in Minimal Essential Medium (Invitrogen) supplemented with 10% fetal bovine serum, glucose 5 mg/liter, transferrin 100 mg/liter, insulin 25 mg/liter, glutamine 300 mg/liter, and potassium chloride 20 mM. Cells were plated on Matrigel (Collaborative Biomedical Product) treated glass coverslips in 24-well chambers and maintained in a humidified, 37° C. incubator with […]/5% CO2. Cells were maintained for 6 to 9 days in culture prior to electrophysiological experiments. HEK293 cells stably transfected with the α2-δ and β1C subunits (HEKα2β1) were grown in Dulbecco's Modified Eagle's Medium containing 10% v/v calf serum, penicillin (100 units/ml), streptomycin (100 μg/ml), and kept under positive selection with Geneticin (400 μg/ml) while being maintained as described above. cDNAs encoding the α1C77 subunit (Zühlke and Reuter, 1998) and the green fluorescent protein were transiently transfected into HEKα2β1 cells by using the Lipofectamine2000 reagent (Invitrogen). Electrophysiological experiments were performed >24 hrs after transfection.

[3] = test system: L-type Ca^2+ currents in cerebellar granule cells; test: Patch-clamp of Ca2+-dependent facilitation of L-type currents in cerebellar granule cells; format: cell-based, C57/BL6 mouse; details: 2 μM peptide in patch pipette; Ca^2+ charge carrier; train of five pulses; without peptide facilitation ~50%
Experimental: Dissociated cerebellar granule cells were prepared from 7-day old C57/BL6 mouse cerebella and grown in culture by a published protocol (Piedras-Renteria and Tsien, 1998; Randall and Tsien, 1995). The cerebellar granule cells were maintained in Minimal Essential Medium (Invitrogen) supplemented with 10% fetal bovine serum, glucose 5 mg/liter, transferrin 100 mg/liter, insulin 25 mg/liter, glutamine 300 mg/liter, and potassium chloride 20 mM. Cells were plated on Matrigel (Collaborative Biomedical Product) treated glass coverslips in 24-well chambers and maintained in a humidified, 37° C. incubator with […]/5% CO2. Cells were maintained for 6 to 9 days in culture prior to electrophysiological experiments. […]
Cerebellar granule cells, identified on the basis of morphology and size, comprised >90% of the cells in the primary culture. […] Voltage-gated Ca^2+ and Ba^2+ currents were recorded from cells depolarized to 0 mV with five 20 ms pulses (50 ms interpulse interval) from a −90 mV holding potential. […]

With “1615-1636: ~22 aa peptide of α1C residues 1615-1636, site important for tethering of apoCaM (RTALRIKTEGNLEQANEELRAI; UniProt Q13936 1615-1636, looked up, fragment)” the “interaction of autophosphorylated CaMKII with the 1581-1690 fusion protein” value (“interaction of autophosphorylated CaMKII” for short) [1] was “not inhibited”.
`COc1ccc([C@@H]2Sc3ccccc3N(CCN(C)C)C(=O)[C@@H]2OC(C)=O)cc1` [diltiazem] was tested, and the “use-dependence of block of calcium currents” value [2] was “none were found”.
For “1589-1610: ~22 aa peptide of α1C residues 1589-1610, site important for tethering of apoCaM (KRLVSMNMPLNSDGTVMFNATL; UniProt Q13936 1589-1610, looked up, fragment)”, the “interaction of autophosphorylated CaMKII” value [1] was “not inhibited”.
With “1639-1660: ~22 aa peptide generated from α1C residues 1639-1660, contains TVGKFY (KIWKRTSMKLLDQVVPPAGDDE; UniProt Q13936 1639-1660, looked up, fragment)” the “interaction of autophosphorylated CaMKII” value [1] was “dramatically reduced”.
In the case of “KKALRRQEAVDAL [autocamtide-2-related inhibitory peptide]”, the “decrease in peak L-type current over the course of the depolarizing pulse train” value [3] is reported as ~25%.
